As a reminder, the Kd is the equilibrium constant for the complex coming apart. A low value points to a tighter complex.

Some results are limits rather than exact numbers.

Here are results for nine molecules from paper PMC5778499.

For one data set, the target named is T1, Pit-1ΔNΔC (UniProt P28069 124-273).
T1 sequence: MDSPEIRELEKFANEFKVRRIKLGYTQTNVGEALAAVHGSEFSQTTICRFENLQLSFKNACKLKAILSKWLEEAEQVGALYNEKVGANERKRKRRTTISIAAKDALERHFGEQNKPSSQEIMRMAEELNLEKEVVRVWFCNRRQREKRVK
Nature of the data set: gel filtration. On the technique in general: SEC sorts molecules by how far they enter the pores of the column.

The target in data set [1] is T2, Pit-1wt (UniProt P28069 1-291).
T2 sequence: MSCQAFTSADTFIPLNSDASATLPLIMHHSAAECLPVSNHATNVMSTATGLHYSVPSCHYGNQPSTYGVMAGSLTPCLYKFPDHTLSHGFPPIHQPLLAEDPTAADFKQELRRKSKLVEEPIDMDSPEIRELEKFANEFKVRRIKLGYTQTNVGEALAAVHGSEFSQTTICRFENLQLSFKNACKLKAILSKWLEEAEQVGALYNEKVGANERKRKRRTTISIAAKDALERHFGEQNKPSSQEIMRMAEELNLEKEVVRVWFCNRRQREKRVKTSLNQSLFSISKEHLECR
The experiment in a line: fluorescence anisotropy. In general terms: In fluorescence polarisation assays a small probe gives low polarisation when free and higher when bound to something large.

The target in data set [2] is T3, Pit-1ΔN (UniProt P28069 105-291).
T3 sequence: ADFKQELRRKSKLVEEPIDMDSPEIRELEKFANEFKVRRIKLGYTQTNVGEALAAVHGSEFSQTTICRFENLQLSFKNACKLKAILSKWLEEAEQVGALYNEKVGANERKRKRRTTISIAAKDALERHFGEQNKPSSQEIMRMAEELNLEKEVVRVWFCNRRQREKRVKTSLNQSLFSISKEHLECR
Nature of the data set: competition.

In the next data set the target is T4, UHRF1 (UniProt Q96T88 1-793).
T4 sequence: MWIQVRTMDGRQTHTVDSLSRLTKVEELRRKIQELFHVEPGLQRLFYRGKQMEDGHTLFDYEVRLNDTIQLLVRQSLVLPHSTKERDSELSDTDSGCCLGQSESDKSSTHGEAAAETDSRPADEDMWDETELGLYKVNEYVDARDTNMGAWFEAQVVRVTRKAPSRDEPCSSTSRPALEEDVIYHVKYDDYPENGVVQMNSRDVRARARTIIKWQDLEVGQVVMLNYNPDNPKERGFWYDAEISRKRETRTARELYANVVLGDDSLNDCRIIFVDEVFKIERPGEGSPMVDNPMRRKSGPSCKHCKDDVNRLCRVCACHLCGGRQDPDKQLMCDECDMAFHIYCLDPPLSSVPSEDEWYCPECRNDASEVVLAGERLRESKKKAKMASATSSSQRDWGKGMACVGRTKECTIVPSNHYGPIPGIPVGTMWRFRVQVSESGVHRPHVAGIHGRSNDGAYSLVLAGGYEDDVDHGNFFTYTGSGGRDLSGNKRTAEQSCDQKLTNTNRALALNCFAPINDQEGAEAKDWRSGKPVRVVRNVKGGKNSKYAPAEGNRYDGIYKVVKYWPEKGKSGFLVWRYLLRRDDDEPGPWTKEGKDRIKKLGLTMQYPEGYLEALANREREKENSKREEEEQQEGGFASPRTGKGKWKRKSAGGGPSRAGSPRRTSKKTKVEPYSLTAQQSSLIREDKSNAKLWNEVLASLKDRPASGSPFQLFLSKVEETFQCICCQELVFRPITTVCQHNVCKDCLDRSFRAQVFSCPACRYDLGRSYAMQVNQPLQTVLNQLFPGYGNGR
The experiment in a line: EMSA. A general note: A gel shift assay detects complexes by their altered migration in electrophoresis.

For data set [3], the target named is T2, Pit-1wt. The experiment in a line: EMSA.
The target in data set [4] is T3, Pit-1ΔN. The experiment in a line: competition. This is another data set of the same source.
Data set [5] concerns the target T3, Pit-1ΔN. Nature of the data set: competition. The source holds these as a separate data set.
In data set [6] the target is T3, Pit-1ΔN. Nature of the data set: fluorescence anisotropy.
The target of data set [7] is T3, Pit-1ΔN. Nature of the data set: fluorescence anisotropy. The source holds these as a separate data set.

B1: 4xCATT crystallization duplex (f4xCrystF/f4xCrystRC) (dsDNA)
DNA 1: CCATTCATTCATTCATTCGGA
DNA 2: CCGAATGAATGAATGAATGGT
In the case of B1, in the data set with Pit-1ΔNΔC, the binding result is recorded as “binds”.

B2: f0x (dsDNA)
DNA 1: TGTCCTCTTCCTGCTATGTCATGGCTTATCTTCTTTCACCCAGCAGTATTAGTCAATGTCTCTTGTATGCCTGGCACCT
DNA 2: AGGTGCCAGGCATACAAGAGACATTGACTAATACTGCTGGGTGAAAGAAGATAAGCCATGACATAGCAGGAAGAGGACA
In turn, B2 showed a Kd with Pit-1wt [1] of 167 nM.

B3: uhGH (dsDNA)
DNA 1: GAGGAGCTTCTAAATTATCCATTAGCACAAGCCCGTCAGTGGCCCCATGCATAAATGTACACAGAAACAG
DNA 2: CTGTTTCTGTGTACATTTATGCATGGGGCCACTGACGGGCTTGTGCTAATGGATAATTTAGAAGCTCCTC
Consider B3, for which the binding result with Pit-1ΔN [2] is given as “binds”.

B4: 8xCATT 111 biotin (dsDNA)
DNA 1: TGTCCTCTTCCTGCTATGTCATGGCTTATCTTCTTTCACCCATTCATTCATTCATTCATTCATTCATTCATTCAGCAGTATTAGTCAATGTCTCTTGTATGCCTGGCACCT
DNA 2: AGGTGCCAGGCATACAAGAGACATTGACTAATACTGCTGAATGAATGAATGAATGAATGAATGAATGAATGGGTGAAAGAAGATAAGCCATGACATAGCAGGAAGAGGACA
Turning to B4, in the data set with UHRF1, the Kd was > 1000 nM. In addition, in the data set with Pit-1wt [3], the binding result is reported as “binds”.

B5: u8x111 (dsDNA)
DNA 1: B4 DNA 1
DNA 2: B4 DNA 2
B5: in the data set with Pit-1ΔN [4], the binding result is reported as “binds”.

B6: u5x99 (dsDNA)
DNA 1: TGTCCTCTTCCTGCTATGTCATGGCTTATCTTCTTTCACCCATTCATTCATTCATTCATTCAGCAGTATTAGTCAATGTCTCTTGTATGCCTGGCACCT
DNA 2: AGGTGCCAGGCATACAAGAGACATTGACTAATACTGCTGAATGAATGAATGAATGAATGGGTGAAAGAAGATAAGCCATGACATAGCAGGAAGAGGACA
B6: the binding result with Pit-1ΔN [4] was “binds”.

B7: u4x (4xCATT) (dsDNA)
DNA 1: CACCCATTCATTCATTCATTCAG
DNA 2: CTGAATGAATGAATGAATGGGTG
As for B7, the binding result with Pit-1ΔN [5] is given as “binds”.

B8: f4x (dsDNA)
DNA 1: CACCCATTCATTCATTCATTCAG
DNA 2: CTGAATGAATGAATGAATGGGTG
Take B8: the binding result with Pit-1ΔN [6] is “binds”.

B9: f8x (dsDNA)
DNA 1: CACCCATTCATTCATTCATTCATTCATTCATTCATTCAG
DNA 2: CTGAATGAATGAATGAATGAATGAATGAATGAATGGGTG
As for B9, the Kd is 35 nM in the data set with Pit-1wt [1] and 27 nM in the data set with Pit-1ΔN [7].
